The labels stand for the following.
B1: L1021H1016 (antibody, V domains shown)
VH: EVQLVQSGGGLVHPGGSLRLSCAGSGFTFSRNAMFWVRQAPGKGLEWVSGIGTGGATNYADSVKGRFTISRDNAKNSLYLQMNSLRAEDMAVYYCARGRYYFPWWGQGTLVTVSS
VL: EIVLTQSPGTLSLSPGERATLSCRASQSVSSSYLAWYQQKPGQAPRLLIFGASSRAPGIPDRFSGSGSGTDFTLTISRLEPEDFAVYYCQQYDHSAGWTFGQGTKVEIK
notes: human kappa
B2: L1021H1031 (antibody, V domains shown)
VH: B1 VH with Q6E, H13Q, G24A, N58S, M90T, P103D, W104Y
VL: B1 VL
notes: human kappa
B3: L1021H1020 (antibody, V domains shown)
VH: B1 VH with N58S
VL: B1 VL
notes: human kappa

Changes are numbered by the printed parent chain.

For the first test, the target named is T1, IL-4Rα on TF-1 cells (human, UniProt P24394 26-825).
T1 sequence (looked up): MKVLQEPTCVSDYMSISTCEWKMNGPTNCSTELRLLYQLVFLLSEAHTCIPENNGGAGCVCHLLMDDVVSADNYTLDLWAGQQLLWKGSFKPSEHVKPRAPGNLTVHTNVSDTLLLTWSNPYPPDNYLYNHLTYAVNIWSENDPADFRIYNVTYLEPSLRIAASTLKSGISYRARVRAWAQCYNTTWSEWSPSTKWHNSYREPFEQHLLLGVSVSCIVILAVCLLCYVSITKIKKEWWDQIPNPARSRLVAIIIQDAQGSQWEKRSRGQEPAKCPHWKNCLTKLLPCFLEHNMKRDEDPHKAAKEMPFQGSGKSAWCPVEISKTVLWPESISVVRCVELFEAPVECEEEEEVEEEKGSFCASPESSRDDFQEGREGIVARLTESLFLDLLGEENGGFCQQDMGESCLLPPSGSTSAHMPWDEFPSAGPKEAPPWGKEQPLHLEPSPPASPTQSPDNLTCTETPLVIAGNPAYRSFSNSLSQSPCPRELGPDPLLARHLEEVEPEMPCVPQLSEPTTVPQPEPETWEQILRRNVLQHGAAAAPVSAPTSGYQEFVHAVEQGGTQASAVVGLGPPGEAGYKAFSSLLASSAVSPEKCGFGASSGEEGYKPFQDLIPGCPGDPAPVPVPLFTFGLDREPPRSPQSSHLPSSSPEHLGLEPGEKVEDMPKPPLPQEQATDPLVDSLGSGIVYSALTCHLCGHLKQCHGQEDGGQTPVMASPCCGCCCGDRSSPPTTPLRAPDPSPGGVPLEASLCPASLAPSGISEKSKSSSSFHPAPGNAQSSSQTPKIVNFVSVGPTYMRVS
Description: cell-based or functional assay.
For the molecule B1, the “Inhibitory rate on pro-proliferative effect of IL-4” value (“Inhibitory rate … of IL-4” for short) was found to be 1 and the “Inhibitory rate on pro-proliferative effect of IL-13” value (from here on “Inhibitory rate … of IL-13”) came out at 0.94.

As for B2, the “Inhibitory rate … of IL-4” value was 1.01 and the “Inhibitory rate … of IL-13” value is 0.93.

With B3, the “Inhibitory rate … of IL-4” value stood at 0.91 and the “Inhibitory rate … of IL-13” value was found to be 0.75.

A further test deals with T1, IL-4Rα on TF-1 cells. The test is described as follows: cell-based or functional assay. This is another data set of the same source.
As to B1, the “IC50 (ng/ml) (Inhibition on the proliferation of IL-4)” value turned out to be 28.5 ng/mL and the “IC50 (ng/ml) (Inhibition on the proliferation of IL-13)” value worked out at 69.7 ng/mL.

Take B2: the “IC50 (ng/ml) (Inhibition on the proliferation of IL-4)” value was 34.3 ng/mL and the “IC50 (ng/ml) (Inhibition on the proliferation of IL-13)” value came to 76.5 ng/mL.

For B3, the “IC50 (ng/ml) (Inhibition on the proliferation of IL-4)” value was 15.4 ng/mL and the “IC50 (ng/ml) (Inhibition on the proliferation of IL-13)” value was determined as 28.6 ng/mL.

A further test deals with T2, human soluble IL-4Rα (sIL-4Rα) (human, UniProt P24394 26-232).
T2 construct: Bought reagent (PEPRO TECH, Catalog Number 200-04R); also called shIL-4Rα; soluble hIL-4 Rα
T2 sequence: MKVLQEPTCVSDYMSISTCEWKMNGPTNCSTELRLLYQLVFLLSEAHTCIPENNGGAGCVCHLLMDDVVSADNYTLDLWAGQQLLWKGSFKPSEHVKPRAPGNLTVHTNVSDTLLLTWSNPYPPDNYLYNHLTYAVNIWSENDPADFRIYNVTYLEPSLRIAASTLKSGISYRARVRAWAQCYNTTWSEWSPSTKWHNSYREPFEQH
Description: ELISA, coated sIL-4Rα, culture supernatant. The procedure:
100 μl of 100 μg/ml sIL-4Rα solution was added to 9.90 ml of PBS, mixed up and down, and then an antigen coating buffer of 1.0 μg/ml was obtained. The prepared antigen coating buffer was added to a 96-well ELISA plate (Corning) with a volume of 100 μl per well. The 96-well ELISA plate was incubated overnight in a refrigerator at 4° C. On the next day; the solution therein was discarded; and PBS containing 2% BSA was added to the 96-well ELISA plate row by row with a volume of 300 μl per well. The 96-well ELISA plate was incubated for 2 hours in a refrigerator at 4° C., Then the PBS containing 2% BSA was discarded and the plate was washed 3 times with PBST. Diluted antibodies to be tested were sequentially added to the corresponding wells, while the normal cell culture supernatants, as negative control samples, were added too. Three duplicate wells were made for each sample with a volume of 100 μl per well. The ELISA plate was wrapped with preservative film (or covered) and incubated for 1 h at […] in a constant temperature incubator. Subsequently, the 96-well ELISA plate was taken out, and the solution therein was discarded. After washing with PBST for 3 times, TMB solution (Solarbio, Catalog Number: PR1200) was added to the 96-well ELISA plate row by row with a volume of 100 μl per well. The 96-well ELISA plate was placed at room temperature for 5 minutes, and 2 M H2SO4 solution was added in immediately to terminate the reaction. The 96-well ELISA plate was placed in flexstation 3 (Molecular Devices), the values of OD450 were read, and the data were collected, calculated and analyzed. Results were expressed relative to the affinity of control antibody 1.
A general note: In an ELISA, binding on a coated surface is turned into a signal by an enzyme label.
As for B1, the “OD 450/OD450Control antibody 1” value is 0.63.

On to B2, for which the “OD 450/OD450Control antibody 1” value is 0.9.

In the case of B3, the “OD 450/OD450Control antibody 1” value is 0.24.

For the origin of these results see patent publication US20190177408A1 (SUZHOU CONNECT BIOPHARMACEUTICALS, published 2019).
